According to publication PMC4900672, “Mechanism of Mitochondrial Transcription Factor A Attenuation of CpG-Induced Antibody Production”:

How the values were obtained:
Assay in all cases: fluorescence anisotropy; FA: 50 mM HEPES-Na pH 7.4, 150 mM NaCl, 1 mM DTT, 20 C, 500 pM FM-DNA, Hill fit; EMSA: 5 nM FM-DNA, 8% PAGE, 0.33x TBE
[1] = molecular target: T1, TFAM (UniProt Q00059 43-246); details: protein: recombinant, label: 5'-6FAM
T1 sequence: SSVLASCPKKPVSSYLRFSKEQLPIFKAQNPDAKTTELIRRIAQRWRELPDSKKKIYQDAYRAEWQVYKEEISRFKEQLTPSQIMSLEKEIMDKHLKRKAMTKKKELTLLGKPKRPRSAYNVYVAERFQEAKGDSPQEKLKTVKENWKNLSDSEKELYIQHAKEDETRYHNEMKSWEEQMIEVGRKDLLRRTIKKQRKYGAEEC

[2] = molecular target: T2, TFAM HMG Box A (UniProt Q00059 50-118); details: protein: recombinant, label: 5'-6FAM
T2 sequence: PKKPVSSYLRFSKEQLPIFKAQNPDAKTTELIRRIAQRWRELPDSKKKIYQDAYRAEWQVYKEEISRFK

[3] = molecular target: T3, TFAM HMG Box B (UniProt Q00059 155-219); details: protein: recombinant; label: 5'-6FAM; G-quadruplex possible (previous studies)
T3 sequence: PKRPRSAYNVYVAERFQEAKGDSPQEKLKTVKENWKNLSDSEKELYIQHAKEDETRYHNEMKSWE

[4] = G-quadruplex possible (previous studies)

TCGTCGTTTTGTCGTTTTGTCGTT (XNA, phosphorothioate (positions in Fig 1A)) [CpG-B (PS)] was tested, and the Kd ([1]; single-stranded by CD) was 1.3 ± 0.03 nM and the Kd ([2]; single-stranded by CD) was 10.4 ± 1 nM.

Binder TTAACAGTCACCCCCCAACTAACAC (ssDNA) [ssLSP (PD)] has a Kd ([1]; single-stranded) of 10.2 ± 0.5 nM.

TCGTCGTTTTGTCGTTTTGTCGTT (ssDNA) [CpG-B (PD)] showed a Kd ([1]; single-stranded) of 4.66 ± 0.2 nM.

Binder GGGGACGACGTCGTGGGGGGG (XNA, phosphorothioate (positions in Fig 1A)) [CpG-A (PS)] has a Kd [1, 4] of 1.83 ± 0.07 nM, a Kd [2, 4] of 71.2 ± 38 nM and a Kd [3] of 231 ± 30 nM.

With TTAACAGTCACCCCCCAACTAACAC (XNA, phosphorothioate (positions in Fig 1A)) [ssLSP (PS)] the Kd ([1]; single-stranded) was 5.06 ± 0.1 nM.
